One experiment has as its target T1, seipin-Myc, Q96G97.
T1 chain: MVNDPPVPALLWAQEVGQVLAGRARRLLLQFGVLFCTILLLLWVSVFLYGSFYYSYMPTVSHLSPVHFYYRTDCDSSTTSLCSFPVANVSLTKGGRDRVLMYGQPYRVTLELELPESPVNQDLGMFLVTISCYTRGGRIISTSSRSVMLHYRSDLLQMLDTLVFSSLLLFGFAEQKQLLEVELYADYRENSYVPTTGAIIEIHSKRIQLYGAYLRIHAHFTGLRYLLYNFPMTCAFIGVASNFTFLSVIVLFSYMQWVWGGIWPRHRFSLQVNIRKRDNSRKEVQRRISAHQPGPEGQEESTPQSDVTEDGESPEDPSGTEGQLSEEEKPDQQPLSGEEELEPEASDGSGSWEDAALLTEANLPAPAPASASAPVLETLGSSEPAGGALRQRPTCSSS
Description: atomic force microscopy; proteins co-expressed in tsA 201 cells, isolated by anti-Myc immunoaffinity chromatography, imaged in tapping mode in air; particle volumes from heights and radii. The settings on record: remark: other sources report otherwise.

A further experiment has as its target T2, seipin-Myc (UniProt Q96G97 1-398).
T2 construct: seipin (product of BSCL2) in the pcDNA3.1 MycHis vector; also called seipin dodecamers; not shown: Myc, C-terminal, kept; copies: 12
T2 sequence (looked up): T1 chain
Described as above. The conditions noted are these: partners not purified.

Several values for one entry are separate records, joined by “and”; a condition that tells them apart may be missing. Equal values may be shown once.

For orientation: stoichiometry N means the number of molecules, sites or subunits per partner or assembly.

B1: seipin-Myc, Q96G97 1-398 (natural protein)
chain: T1 chain
In turn, B1 yielded a stoichiometry N with seipin-Myc, Q96G97 of 12.

B2: FLAG-perilipin (in tsA 201 cells) (natural protein, UniProt O60240 1-522, looked up)
chain: MAVNKGLTLLDGDLPEQENVLQRVLQLPVVSGTCECFQKTYTSTKEAHPLVASVCNAYEKGVQSASSLAAWSMEPVVRRLSTQFTAANELACRGLDHLEEKIPALQYPPEKIASELKDTISTRLRSARNSISVPIASTSDKVLGAALAGCELAWGVARDTAEFAANTRAGRLASGGADLALGSIEKVVEYLLPPDKEESAPAPGHQQAQKSPKAKPSLLSRVGALTNTLSRYTVQTMARALEQGHTVAMWIPGVVPLSSLAQWGASVAMQAVSRRRSEVRVPWLHSLAAAQEEDHEDQTDTEGEDTEEEEELETEENKFSEVAALPGPRGLLGGVAHTLQKTLQTTISAVTWAPAAVLGMAGRVLHLTPAPAVSSTKGRAMSLSDALKGVTDNVVDTVVHYVPLPRLSLMEPESEFRDIDNPPAEVERREAERRASGAPSAGPEPAPRLAQPRRSLRSAQSPGAPPGPGLEDEVATPAAPRPGFPAVPREKPKRRVSDSFFRPSVMEPILGRTHYSQLRKKS
notes: perilipin (product of PLIN1) in the pCMV3xFLAG vector; Same construct as m7, other host cells
As for B2, the “stoichiometry N” value with seipin-Myc was 1 perilipin per seipin dodecamer and 2 perilipin per seipin dodecamer.

These data come from article PMC6531784, “Discovering metabolic disease gene interactions by correlated effects on cellular morphology” (Molecular Metabolism, 2019).
